The data set is described as follows: label from the status in PepcDB records.
In the case of “MDAKVAFSPHSDANGRLDEIGADIDTAQSSVLFSLAFLGQMTRGAIGPALGRALERPEVHVMGIADAEVRAGNLGLNVLTPDNRRRVVRAAALTGNVPPPFLTEPSGLAGVDGNQRGTRMHHKFVVLDFDKPTARVYLGSYNFSNPADDENGENLVVVRDRTVATSYMIEALRMYDHLEHHHHHH”, the protein production result is recorded as “failed”.

As to “MDALTVGELRRRVHALVLGKRQRVYSGAMFLVEVVHHPELSAMLGLEDNKLLLAMIAQRLQMQSDYFQVARHSSDSFMVWAPDLDPRSARDVAPEVLDALSQPYELRGQPLIVGFRLSGALYAQHGACFDELERSLHIAMLHLDESAGAAWNMFEPSMLEHQRHYQGLEHHHHHH”, the protein production result is given as “not failed”.

Consider “MDAVKKAILGEVLEEEEAYEVMRALMAGEVSPVRAAGLLVALSLRGERPHEIAAMARAMREAARPLRVHRRPLLDIVGTGGDGKGLMXLSTLAALVAAAGGVAVAKHGXRAASSRAGSADLLEALGVDLEAPPERVGEAIEELGFGFLFARVFHPAMRHVAPVRAELGVRTVFXLLGPLTXPAGADAYVLGVFSPEWLAPMAEALERLGARGLVVHGEGADELVLGEXRVVEVGKGAYALTPEEVGLKRAPLEALKGGGPEEXAALARRLLKGEEKGPLADAVALAAGAGFYAAGKTPSLKEGVALAREVLASGEAYLLLERYVAFLRA”, for which the protein production entry is on record as “not failed”.

Regarding “MDCKKVIADYWNLRSSTYTNGENGFDAEERIIWRRMLENFLPPGQRLKVLDVGTGPGFLALLFAEMGHEVTAVDISMGMLEKARNNAKTLGVKVDLFHGDAEKLPFEDCYFDLVVNKYLLWTLPQPEIAVQEWMRVLKPGGRVFAIDGNWFNPRPDKKVKRWITGVVNPDMNKNPSRSFFNEFYGPIRKALPLYEDISPENVSVVFSKMGFENTAVNPLQEAQKFKKSKLPFIQRFLRDTPIFLITGQKATE”, the protein production entry is listed as “failed”.

Consider “MDDKTAGGKIVMNKEQLLLFMENRRKQEDHRLALAKEATRSEMVDRKASGKIIMNHDQQLMFNEDHRLAVKKASRSEMVDLEGMGSEASVIMSNVPQPTSFSEDHKLAIKNIISKIVKEIRDRDHPA”, for which the protein production result is given as “failed”.

For “MDDLKTRVITASVVAPFVVLCFVSYESLIGLVSAILILAGYELITLEMKERDARFFYVILLALYPVLYGLVFEEPTQPLSILFITGVVFSLITDKDPSQVFKTVAAFSIALIYVTFFLSFFLPIYRDFGAANALLVLTSTWVFDSFAYFTGLKFGRTRISPRYSPRKSLEGVIGGFLGVVIYTFLYRLVVNDLLSVNVISFRTFLPFAATVAIMDTFGDIFESALKRHYGVKDSGKTLPGHGGMLDRIDGLLFVAPVSYIVFKILEGVVR”, the protein production entry is “failed”.

As for “MDDLNPLAGTAHLLEEVDKKLMVLLRDGRTLIGYLRSVDQFANLVLQRTIERIHVGNEYGDIPRGVFIIRGENVVLLGEIDREKEQKLPLKEISVDEILDAQRREQEQRQEKHRLVSKALKERGLAVDANIINEDFC”, the protein production result is given as “failed”.

As to “MDDWEDEKIAPLPAKVELKSNWDDEDVDENEIKDSWEDDDDEPAQPPVINPAPEKAPKKAAPKTVEKKGKAVEVPKEAPKEKPLDPIAEKLRQQRLVEEADYRATAELFGVKDDDKNLDMFIPKSESDFLEYAEMISHRIKPYEKSYHYIALLKTIMRLSLTNMKAADVKDVASSITTIANEKLKAEKEAAAGKKKGGKKKQLIVDKANDDLVAGPYDAMDDFDFM”, the protein production entry is “failed”.

As for “MDEIKIEKLKKLDKKALNELIDVYMSGYEGLEEYGGEGRDYARNYIKWCWKKASDGFFVAKVGDKIVGFIVCDKDWFSKYEGRIVGAIHEFVVDKKFQGKGIGRKLLITCLDFLGKYNDTIELWVGEKNYGAMNLYEKFGFKKVGKSGIWVRMIKRQNL”, the protein production result is on record as “not failed”.

Take “MDEILARAGIFQGVEPSAIAALTKQLQPVDFPRGHTVFAEGEPGDRLYIIISGKVKIGRRAPDGRENLLTIMGPSDMFGELSIFDPGPRTSSATTITEVRAVSMDRDALRSWIADRPEISEQLLRVLARRLRRTNNNLADLIFTDVPGRVAKQLLQLAQRFGTQEGGALRVTHDLTQEEIAQLVGASRETVNKALADFAHRGWIRLEGKSVLISDSERLARRAR”: the protein production result is given as “not failed”.

Turning to “MDEKKIPRSLQAIIAQVKAHYADDQELQTLFEQCFLNTYLTTIQEDEQGTFVVTGDIPAMWLRDSSAQVRPYLTVVKEDADMARMIKGVIERQWRYILHDPYANAFNQTANKQGHQQDRTEMSPLVWERKYELDSLCYPIQLAYLYWKATGDDSVLQPTLKQVLETIYRIWKIEQDHEAKSSYSFERDDCRVSDTLLRKGKGGYSVPTGMTWSGFRPSDDACLYGYLIPANMFAVVVSNYAVELLTAMEEIKLAEEFRELEADIRQGIGQYGKMDHPVYGEIYVYETDGNGRVNLMDDANVPSLLAIPYLGYTTADDPVYQNTRRFILSRDNPYYYEGSYAKGVGSPHTPDHYVWHISLAIQGMTAIDSKEKKQIVAMFKQTHADTYFMHEGFDVDRPEQYTRSWFAWANSMFSEFLLSEAGIYVPGSPLENMKNNKAGDRHVLSTGKAAKPNQ”, the protein production result was “failed”.

As to “MDELFTESAKAVLAIAQEEAKYFRHQSVGSEHLLLALVLEPNGIAGKTLRQLNTDTEDIREEIEHLSGYGTMQSPMGNNNLYLPYSPRAKQIFAYAGDEAKRLGAQKIGTEHLLLGLLRDEEILASRILVNLGLSLSKMRQLLLKKMG”, the protein production entry is listed as “not failed”.

For the sequence “MDELRELLKGEQQGIKILKEVLKKAKEGDEQELARLNQEIVKGEKQGVKVYKEAAEKARNPEKRQVIDKILEDEEKHIEWHKAASKQGNAEQFASLVQQHLQDEQRHVEEIEKKNLEHHHHHH”, the protein production result is “not failed”.

In the case of “MDETEHMPRYTLTLVDSTGAMEPLILMDDDLKSIAAKLEGRVSAKTRGRRPRGTGGISATPKGYRAYSTVTDPLTGKDHRVSGFGRTRSQAEARLKEKLAEFDRTHRVGYVRPPTVAEWMDHWLTDVCKPRLKPRTWGTYASVIANNIVPSIGAVRLDELKPAHFRRMERYVMDEQGKSSGTAGSAWRTLHKALEDAVLEGVIERNPAVKGTAPRVALKERAALTPEQAADLIAAETDDTWRLMWMLAFMTGMRQGERLGLTEDELRRDGDRLIILVEWQAQHLTKREVEGLPKGVECTPLGNGMYRTRPKTEKGRRAIPLPEALADQLLAYIERHGVNGDGLVFHDDRGLPLTGCVERRRWYRALDRVGLGHEYVPHSARHTTATILNRLGLDDVTRTAIMGHSRVSTTNEIYTHVELDRLVAATDGVERAIEG”, the protein production entry was “failed”.

As for “MDETGNLTVSSATCHDTIDDFRNQVYSTLYSMISVVGFFGNGFVLYVLIKTYHKKSAFQVYMINLAVADLLCVCTLPLRVVYYVHKGIWLFGDFLCRLSTYALYVNLYCSIFFMTAMSFFRCIAIVFPVQNINLVTQKKARFVCVGIWIFVILTSSPFLMAKPQKDEKNNTKCFEPPQDNQTKNHVLVLHYVSLFVGFIIPFVIIIVCYTMIILTLLKKSMKKNLSSHKKAIGMIMVVTAAFLVSFMPYHIQRTIHLHFLHNETKPCDSVLRMQKSVVITLSLAASNCCFDPLLYFFSGGNFRKRLSTFRKHSLSSVTYVPRKKASLPEKGEEICKV”, the protein production entry is listed as “failed”.

For “MDEVLKEILSSYQKRALKLTKRVRKKIFKNDPTENQKKAIKIALNTPDIAIIQGPPGTGKTTVINAICERLFEEYPKDKNIKGQILLCAQGHDATNNARERIKVGGLPTFKFGAKKNAKEEQYKQDERLNERLREFAETLIESVRKKLQKLGDYENIEKILDLEEALRRYYSSPISELEFLKEIEKNESFF”, the protein production result was “failed”.

Regarding “MDFDYTIKALKTKKKLDAKPNTHTDFVYTTKALRSRKKLDTKPNIHTDFGYAIKAWRSKKKLDIVLESNMTRYMCMIEYKN”, the protein production entry is “failed”.

Consider “MDFKSSDAIRGPRTEDHLPHTAQAAVKIVIVGGFGVGKTTMVGSVSEIRPLTTEETMTQMGIGVDDNYGSESKTATTVAMDFGRISITEQLVLYLFGTPGQERFWFLWNGLFEGALGAVVLIDTRRLEVSFDVIGRLEERGVPFVIAVNDFPDAPRYPVEDLRGALDLTEDIPIVKCDARRRASSREVLMTLMHFLHSLAVSKTSVLEHHHHHH”, for which the protein production entry was “failed”.

For “MDFLTKLAIAFLIGIMVGVEREHRGLEHEIFAGVRSYSITCITGMLVALASESIGTGFVYVSTLFFAAMCSIITYSKIFLFKRIGVTSPITLFFIFVMGVLVGYDYGLFAIVSSIVVAFLLIQKQPLHQFAGNLTKEELYNAIQFLAVAFILYPVMPEKQFFGLLNLRYAILIVILVSLISFSSYVLLRKFGTKRGLYYSGFLGGFINSEATTGALAGLSKKAEEMAAPVITGILLCNISMLIRNLVLAFIVDPTGRTTMLMLLPQLVLIIVSIGMAYRHSKKVCPIGGGELKIQSPFSLGQAFKFGIAFTLILVIGNFAYNAAGTTGIYLTALGALVSSSGVIVSVTLLAVSGNISYEVAANTAVIASLVSTVNKILLSKISGSSSLFSLAIKDFGIIAATGTLALVILNFL”, the protein production result is “failed”.

Turning to “MDGATLAEVMRQRGINMRYLGKVLDLVLRSPARDQLDHIYKIGIGELITRSAKHIFKTYLQGVELSGLSAAISHFLNCFLSSYPNPVAHLPADELLSKKRNKRRKNRPPGAADNTAWAVMTPQELWKNICHEAKNYFDFTLECDSVDQAVETYGLQKITLLREISLKTGIQILLKEYSFDSRHKPAFTEEDVLNIFPVVKHVNPKASDAFHFFQSGQAKVQQGFLKEGCELINEALNLFNNVYGAMHVEICACLRLLARLHYIMGDYAEALSNQQKAVLMSERVMGIEHPNTIQEYMHLALYCFASSQLSTALSLLYRARYLMLLVFGEDHPEMALLDNNIGLVLHGVMEYDLSLRFLENALAVTTKYHGPKALKVALSHHLVARVYESKAEFRSALQHEKEGYTIYKTQLGEDHEKTKESSEYLKCLTQQAVALQRTMNEIYRNGSSANIPPLKFTAPSMTSVLEQLNVINGILFIPLSQKDLENLKAEVARRHQLQEANRNRDKAEEQPMAPEPEPEPEPERAVEDMGSPQTAKEGPSSLNLQG”, the protein production entry is given as “failed”.

With “MDGLHVSIVSVALFIILFVIFVFLGFYGSRWRRGDLSKLHEWALAGRRLGPYLMWFLLTADLYTAYTFIAVPSLVLASGPVGFFAAFYSAVTPFIALLFMPRLWTIAKNRGYVTAADFIKDRFNSRILAGLVAITGVVAELPYIALQIVGMQVALLILLLGLGVSNITLASDLSLLVAFIILAAFVFTSGLRGAALTAVYKDIIILGTIISIAIYVPLAFGGFSGAFHNAQTLSSQINLALNNVNKPIFYNYLPNTLAARTAYISLAIGSAFALYLYPHAVNASVSSDSKKSLKLSLALQPFYSIILAVIALFGILVYANSKVVNFIAKTHSGAVAVPALIGYSMPDWFVGIALLGIFIGGLVPAAIMAIGAANLLTRNIIKEFKPNMSPSTESALAKWISTAFKFLALALVFATPSTYAIQLQLLGGIIILQTLPSVFLGLYTSKLNGYALVGGWAGGMFSGIYLTLLANHFGPLKTSSFITPLGPMYIGVLSTLINLAIGLIGTAIAYGAGWRPVSNIRAEEIA”, the protein production entry was “failed”.

Consider “MDGLIPMALKAVKKNLTRRRYERLSYSATTRESYDFASDIEMNVDGRHHRRGWSVGDFSSLSSRETKRNGGVAPEKSLTPPREGQLVRFKSHRLFSCISGQ”, for which the protein production entry is “failed”.

On to “MDGVYVLSVKEDVPAAGILHAGDLITEIDGQSFKSSQEFIDYIHSKKVGDTVKIKYKHGNKNEEASIKLTAIDKKGTPGIGITLVDDLEHHHHHH”, for which the protein production entry is recorded as “failed”.

Consider “MDHPFNQMRLKLTTELLLDLGSLKPEHIITPRIATDEELSLIHSYDYIQAIRRASHGILNLQEAKKYGLDGDDTLQFRRMHQHSARIVGGALNLADAIMDKSVKNGCHLGGGLHHSLPGRANGFCIYNDVAITIAYLIKHYNQRVLCIDTDAHHGDGTQWSFYTEDQALIYSIHETGKFLFPGSGHYTERGNEQGFGYTVNIPLEPYTEDSSYLEVFKQTIEPIIASFKPDIIVSVHGVDVHYLDPLTHMSCTLNTLYQIPYIIKSLADTYTNGKVMMFGGGGYNIWKVVPRAWSHVFLALEHHHHHH”, for which the protein production result was “not failed”.

The values are drawn from a protein production outcome set (Wang et al. 2014).
